According to US20110150895A1 (SAMSUNG ELECTRONICS, published 2011):

Experiments:
[1] = biological target: T1, recombinant hAng-2 (a recombinant human angiopoietin-2 protein with an attached His tag; R&D Systems) (human, UniProt O15123 19-496); assay: SPR (BIAcore T100), hAng-2 amine-coupled on CM5 chip, antibody as analyte
T1 construct: Bought reagent; not shown: His tag
T1 sequence (looked up): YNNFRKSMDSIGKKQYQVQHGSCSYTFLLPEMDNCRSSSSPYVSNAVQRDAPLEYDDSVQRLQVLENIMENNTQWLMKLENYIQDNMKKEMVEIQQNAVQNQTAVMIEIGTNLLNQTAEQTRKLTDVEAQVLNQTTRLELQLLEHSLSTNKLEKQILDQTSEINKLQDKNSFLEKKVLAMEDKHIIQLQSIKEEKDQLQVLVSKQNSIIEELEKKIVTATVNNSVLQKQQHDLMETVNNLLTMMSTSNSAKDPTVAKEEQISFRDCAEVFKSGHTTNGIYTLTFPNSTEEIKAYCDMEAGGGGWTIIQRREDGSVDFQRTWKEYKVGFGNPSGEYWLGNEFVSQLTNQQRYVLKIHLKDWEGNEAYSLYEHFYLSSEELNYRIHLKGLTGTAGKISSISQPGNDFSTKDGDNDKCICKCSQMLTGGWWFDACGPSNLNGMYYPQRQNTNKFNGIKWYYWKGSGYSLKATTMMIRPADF
Experimental: The affinity of each of the monoclonal antibodies SAIT-Ang-2-5 and SAIT-Ang-2-6 of Example 1 to angiopoietin-2 was measured using a surface plasmon resonance (SPR) device (BIAcore T100, GE Healthcare). 20 μg/ml recombinant hAng-2 (R&D Systems) was immobilized on a CM5 chip (GE Healthcare) using a pH 4.5 acetate solution and an amine coupling kit (GE Healthcare). Each of the monoclonal antibodies SAIT-Ang-2-5 and SAIT-Ang-2-6 of Example 1 was diluted to eight different concentrations down to 0.78125 nM by serially diluting to ½ each time starting from 100 nM. Then, the antigen/antibody affinity was measured by binding each antibody with the antigen immobilized on the CM5 chip and dissociating the antigen from the antibody using a pH2.2 glycine-HCl solution. […] From the results, the affinity of each monoclonal antibody SAIT-Ang-2-5 and SAIT-Ang-2-6 of Example 1 to angiopoietin-2 was determined.

[2] = biological target: T1, recombinant hAng-2 (a recombinant human …); assay: competitive ELISA: inhibition of 1 nM hAng-2 binding to coated hTie2-Fc
Experimental: A 96-well MaxiSorp™ flat-bottom plate (Nunc) was coated with recombinant human Tie2-Fc (hTie2-Fc) (R&D Systems, Inc.) dissolved in DMEM culture containing 50 μg/ml bovine serum albumin (BSA). The hTie-2Fc is a chimeric protein including the water-soluble extracellular region of human Tie-2 and the Fc fragment of human IgG₁. The concentration of hTie2-Fc immobilized was equivalent to 75% of its maximum binding concentration with 1 nM of recombinant hAng-2 (a recombinant human angiopoietin-2 protein with an attached His tag; R&D Systems). The plate was washed with Phosphate Buffered Saline (PBS) containing 0.1% TWEEN-20 five times and blocked with PBS containing 5% BSA at room temperature for two hours. To perform an ELISA experiment for determining whether binding between angiopoietin-2 and Tie-2 was neutralized, each of the monoclonal antibodies SAIT-Ang-2-5 and SAIT-Ang-2-6 prepared according to Example 1 were serially diluted from 100 nM by one-fourth each time with PBS containing 1% BSA and 1 nM hAng-2 and adjusted to a concentration of 6.1 pM. […] The OD₄₅₀ value was read on a plate reader (Molecular Devices). […] Based on the results, each of the monoclonal antibodies SAIT-Ang-2-5 and SAIT-Ang-2-6 of Example 1 was determined to be capable of neutralizing binding between angiopoietin-2 and Tie-2 (refer to Table 1).

B1: Monoclonal antibody SAIT-Ang-2-5 (antibody, V domains shown)
VH: DVQLVESGGGLAQPGGSRKLSCAASGFTFSNFGMHWVRQAPEKGLDWVAYISSGSDTIYYADTVKGRFTISRDNPKNTLFLQMTSLRSEDTAMYYCARESTMITMGYVLDYWGQGTSVTVSS
VL: DIQMTQSPASQSASLGESVTITCLASQTIGTWLAWYQQKPGKSPQLLIYAATSLADGVPSRFSGSGSGTKFSLKISSLQAEDFVSYYCQQLYSIPLTIGAGTKLELK
notes: also called antibody of hybridoma KCLRF-BP-00221
Q: B1 was tested. Which Kd [1] did it give?
A: The Kd was 0.902 nM.

Q: What about the koff [1] of the same binder?
A: The koff was 0.00178 s⁻¹.

Q: What about the kon [1] of the same binder?
A: The kon was 1.97e+06 M⁻¹ s⁻¹.

Q: And the IC50 [2]?
A: The IC50 was 0.764 nM.

B2: Monoclonal antibody SAIT-Ang-2-6 (antibody, V domains shown)
VH: QVQLQQPGSELVRPGTSVKLSCKASGYTFTNYLMHWVKQRPGQGLEWIGNIYPGSGATNYDEKFKSKATLTVDISSSTAYMQLISLTSEDSAVYYCTRDDYDGSWFAYWGQGTLVTVSA
VL: DIVMTQSPSSLSVSAGEKVTMTCKSSQSLLISGNQKNFLAWYQQKPGQPPKLLIYGASTRDSGVPDRFTGSGSGTDFTLTISSVQAEDLAVYYCQNDHSYPLTFGTGTKLELK
notes: also called antibody of hybridoma KCLRF-BP-00222
Q: For B2, which Kd [1] is on record?
A: The Kd was 1.27 nM.

Q: What about the koff [1] of the same binder?
A: The koff was 0.00207 s⁻¹.

Q: What about the kon [1] of the same binder?
A: Its kon is 1.64e+06 M⁻¹ s⁻¹.

Q: What about the IC50 [2] of the same binder?
A: The IC50 was 1.86 nM.
